B1: RA335 (nucleic acid)
DNA: GCGCGTCCTGGATTCGCGGAAACGCGTAGGAATACCAGCATCGTCTTGATGCCCTTGGAAGTCCCATCCAGCTGACGAGTCCCAAATAGGACGAAACGCGC
modifications: expressed or natural sequence
B2: RA338 (nucleic acid)
DNA: GCGCGTCCTGGATTCGCGGAAACGAGAATACCAGCATCGTCTTGATGCCCTTGGAAGTCTCGCGCGTACATCCAGCTGACGAGTCCCAAATAGGACGAAACGCGC
modifications: expressed or natural sequence
B3: RA326 (nucleic acid)
DNA: GCTGTCACCGGAATACCAGCATCGTCTTGATGCCCTTGGAAGTCCGGTCTGATGAGTCCCTTGAGGACGAAACAGC
modifications: expressed or natural sequence
B4: RA320 (nucleic acid)
DNA: GCGCGTCCTGGATTCGCGGAAACGCGTACATCCAGCTGACGAGTAGTGATACCAGCATCGTCTTGATGCCCTTGGCAGCACTCCCAAATAGGACGAAACGCGC
modifications: expressed or natural sequence
B5: RA327 (nucleic acid)
DNA: GCGCGTCCTGGATTCGCGGAAACGCGTAGTGATACCAGCATCGTCTTGATGCCCTTGGCAGCACTACATCCAGCTGACGAGTCCCAAATAGGACGAAACGCGC
modifications: expressed or natural sequence
B6: RA323 (nucleic acid)
DNA: GCGCGTCCTGGATTCGCGCGGAATACCAGCATCGTCTTGATGCCCTTGGAAGTCCGGAAACGCGTACATCCAGCTGACGAGTCCCAAATAGGACGAAACGCGC
modifications: expressed or natural sequence
B7: RA322 (nucleic acid)
DNA: GCGCGTCCTGGATTCGCGGAGAATACCAGCATCGTCTTGATGCCCTTGGAAGTCTAAACGCGTACATCCAGCTGACGAGTCCCAAATAGGACGAAACGCGC
modifications: expressed or natural sequence
B8: RA339 (nucleic acid)
DNA: GCGCGTCCTGGATTGGAATACCAGCATCGTCTTGATGCCCTTGGAAGTCCCGCGGAAACGCGTACATCCAGCTGACGAGTCCCAAATAGGACGAAACGCGC
modifications: expressed or natural sequence
B9: RA332 (nucleic acid)
DNA: GCGCGTCCTGGATTCGCGGAAACGCGTACATCCAGCTGACGAGTCGGAATACCAGCATCGTCTTGATGCCCTTGGAAGTCCCCAAATAGGACGAAACGCGC
modifications: expressed or natural sequence
B10: RA324 (nucleic acid)
DNA: GCGCGTCCTGGATTCGCGGAAACCGGAATACCAGCATCGTCTTGATGCCCTTGGAAGTCCGGCGTACATCCAGCTGACGAGTCCCAAATAGGACGAAACGCGC
modifications: expressed or natural sequence
B11: RA337 (nucleic acid)
DNA: GCGCGTAGAATACCAGCATCGTCTTGATGCCCTTGGAAGTCTCCTGGATTCGCGGAAACGCGTACATCCAGCTGACGAGTCCCAAATAGGACGAAACGCGC
modifications: expressed or natural sequence
B12: RA336 (nucleic acid)
DNA: GCGCGTCCTGGATTCGCGGAAAGTGATACCAGCATCGTCTTGATGCCCTTGGCAGCACTACGCGTACATCCAGCTGACGAGTCCCAAATAGGACGAAACGCGC
modifications: expressed or natural sequence
B13: RA032 (nucleic acid)
DNA: GCGCGTCCTGGATTCGCGGAAAAGTGATACCAGCATCGTCTTGATGCCCTTGGCAGCACTCGCGTACATCCAGCTGACGAGTCCCAAATAGGACGAAACGCGC
modifications: expressed or natural sequence
B14: RA329 (nucleic acid)
DNA: GCGCGTCCTGGATTCGCGGAAACGCGTACATCCAGCTGACGAGTCCCAAATAGGACGAAACAGTGATACCAGCATCGTCTTGATGCCCTTGGCAGCACTGCGC
modifications: expressed or natural sequence
B15: RA333 (nucleic acid)
DNA: GCGCGTCCTGGATTCGCGGAAACGCGTACATCCAGCTGACGAGTCCCAAAGAATACCAGCATCGTCTTGATGCCCTTGGAAGTCTATAGGACGAAACGCGC
modifications: expressed or natural sequence
B16: RA334 (nucleic acid)
DNA: GCGCGTCCTGGATTCGCGGAAACGCGTACCCGGAATACCAGCATCGTCTTGATGCCCTTGGAAGTCCGGATCCAGCTGACGAGTCCCAAATAGGACGAAACGCGC
modifications: expressed or natural sequence
B17: RA321 (nucleic acid)
DNA: GCGCGTCCTGGATTCGCGGAAACGCGTACATCCAGCTAGTGATACCAGCATCGTCTTGATGCCCTTGGCAGCACTGACGAGTCCCAAATAGGACGAAACGCGC
modifications: expressed or natural sequence
B18: RA330 (nucleic acid)
DNA: GCGCGTCCTGGGAGAATACCAGCATCGTCTTGATGCCCTTGGAAGTCTCATTCGCGGAAACGCGTACATCCAGCTGACGAGTCCCAAATAGGACGAAACGCGC
modifications: expressed or natural sequence
B19: RA328 (nucleic acid)
DNA: GCGCGTCCTGGATTCGCGGAAACGCGTACATCCAGCTGACAGTGATACCAGCATCGTCTTGATGCCCTTGGCAGCACTGAGTCCCAAATAGGACGAAACGCGC
modifications: expressed or natural sequence
B20: RA331 (nucleic acid)
DNA: GCGCGTCCTGGGAATACCAGCATCGTCTTGATGCCCTTGGAAGTCCGATTCGCGGAAACGCGTACATCCAGCTGACGAGTCCCAAATAGGACGAAACGCGC
modifications: expressed or natural sequence
B21: RA325 (nucleic acid)
DNA: GCGCGTCCTGGATTCGCGGAAACGCGTACATCCAGCTGACGAGTCCCAAATAGGAGGAATACCAGCATCGTCTTGATGCCCTTGGAAGTCCCAAAACGCGC
modifications: expressed or natural sequence

System: Renilla luciferase RNA
Experiment: Barcoded aptazyme variant library screen: un-cleaved Renilla luciferase RNA by barcode read counts, HEK293-T cells
Assay type: cell-based
Conditions: triplicate
Method in brief: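 Barcode sequencing of cDNA versus DNA, normalized per aptazyme, gave the un-cleaved Renilla luciferase RNA fraction and fold-change with versus without theophylline (triplicates). Library: T3H48 ribozyme with one of seven theophylline aptamer variants inserted at each position, placed in the Renilla 3′ UTR of a dual-luciferase vector.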

[1] = un-cleaved Renilla luciferase RNA by barcode read counts, with 1 mM theophylline (ON) over without theophylline (OFF), HEK293-T cells

Row | Molecule | Fold change in RNA expression between the ON state and the OFF state [1] | Fold change in RNA expression between the ON state and the OFF state (un-cleaved Renilla luciferase RNA, HEK293-T cells cultured with 1 mM theophylline (ON) over without theophylline (OFF), barcode read counts) [fold]
1 | B1 | 0.9 | 
2 | B2 | 0.9 | 
3 | B3 | 0.9 | 
4 | B4 | 0.9 | 
5 | B5 | 0.9 | 
6 | B6 | 0.9 | 
7 | B7 | 0.9 | 
8 | B8 | 0.9 | 
9 | B9 | 0.9 | 
10 | B10 | 0.9 | 
11 | B11 | 0.9 | 
12 | B12 | 0.9 | 
13 | B13 |  | 2.3
14 | B14 | 0.9 | 
15 | B15 | 0.9 | 
16 | B16 | 0.9 | 
17 | B17 | 0.9 | 
18 | B18 | 0.9 | 
19 | B19 | 0.9 | 
20 | B20 | 0.9 | 
21 | B21 | 0.9 | 

— patent publication US20260167959A1, “APTAZYME-BASED REGULATABLE GENE EXPRESSION SYSTEMS” (REJUVENATE BIO INC, priority 2022, published 2026)
